Test results reported in publication PMC2195830.

Biological target: phospholipase C (PLC)-γ2 (chicken (endogenous in DT40))
Test: co-IP

B1: phosphorylated B cell linker protein (BLNK), from BCR-stimulated DT40 cells (natural protein)
chain: MDKLNKLAVPAGEKFRKLQKMVHDIKKNESGIINKFKKFQNEQVALICKTGKDTWDRLKKKPPPSLPRRDYASEHADNEEEQWSDDFDSDYENPDGHSDSEMYVVPSEENPDDSYEPPPSEQEKKKIPSSFPISRGEYADNRTSHHQLPPINKPLPSTPSSALPRPKKPSLPSPAAKPKLPLKPRECSDDEDNYIVPVDNDDDNYIEPTESSTPPPAKPPVNRFMKPPAKSALPTPPKPSLASDMQEVYEVPEEEEELSPPPVTRFTKPLPATRAQNAEHSHMHSMTRESPKLDASRNILPLPRNRLHPKTDHEANNNDENHSFSNTQESKFPPGAAPSPLPRALKKTSNAVNPAKPCLPSRDTFTVNEDKPTAADRRRGSSHEFPLPPLPSGTPKSSLQKPLVLPKVPEAPSRALGTSPHSSISSISSTADQDAGVHSKAWYAATCDRKTAEDALYRSNKDGSFLIRKSSGQDSRQPYTLVVFYNRRVYNIPIRFIESTRQYALGREKCGEERFDSVAEIVENHQHTSLVLIDSQNNTKDSTKLKYIVRVS
modifications: phosphotyrosine (sites not defined in the paper)
B1 was tested, and the fold increase of the association in Cbl-deficient against wild-type DT40 cells was 3 fold.
